Results from the supplement of paper PMC11196671.
± gives the standard deviation of the averaged measurements.

Test: BHET released, HPLC; higher = more BHET released; extreme values may be limits of the assay
Conditions: 24 h
Protocol: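 Purified PET hydrolases, 2.5 ug enzyme on 3.5 mg amorphous PET film (aFilm) or crystalline PET powder (cryPow) in 0.5 mL of 50 mM buffer (NaCitrate pH 4.5/5.5, NaPhosphate 6.5/7.5, glycine 8.5/9.5) at 60 or 70 C with shaking for 24 h. Total aromatic product by UV-Vis (260/280 nm, blank-subtracted, normalised per mg enzyme) and individual TPA, MHET, BHET concentrations by UHPLC-DAD at 240 nm; duplicate reactions.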

[1] = PET substrate: aFilm, 60 °C, pH 4.5
[2] = PET substrate: aFilm, 60 °C, pH 5.5
[3] = PET substrate: aFilm, 60 °C, pH 6.5
[4] = PET substrate: aFilm, 60 °C, pH 7.5
[5] = PET substrate: aFilm, 60 °C, pH 8.5
[6] = PET substrate: aFilm, 60 °C, pH 9.5
[7] = PET substrate: aFilm, 70 °C, pH 4.5
[8] = PET substrate: aFilm, 70 °C, pH 5.5
[9] = PET substrate: aFilm, 70 °C, pH 6.5
[10] = PET substrate: aFilm, 70 °C, pH 7.5
[11] = PET substrate: aFilm, 70 °C, pH 8.5
[12] = PET substrate: aFilm, 70 °C, pH 9.5
[13] = PET substrate: cryPow, 60 °C, pH 4.5
[14] = PET substrate: cryPow, 60 °C, pH 5.5
[15] = PET substrate: cryPow, 60 °C, pH 6.5
[16] = PET substrate: cryPow, 60 °C, pH 7.5
[17] = PET substrate: cryPow, 60 °C, pH 8.5
[18] = PET substrate: cryPow, 60 °C, pH 9.5
[19] = PET substrate: cryPow, 70 °C, pH 4.5
[20] = PET substrate: cryPow, 70 °C, pH 5.5
[21] = PET substrate: cryPow, 70 °C, pH 6.5
[22] = PET substrate: cryPow, 70 °C, pH 7.5
[23] = PET substrate: cryPow, 70 °C, pH 8.5
[24] = PET substrate: cryPow, 70 °C, pH 9.5

Sequence	BHET released [1] [mM]	BHET released [2] [mM]	BHET released [3] [mM]	BHET released [4] [mM]	BHET released [5] [mM]	BHET released [6] [mM]	BHET released [7] [mM]	BHET released [8] [mM]	BHET released [9] [mM]	BHET released [10] [mM]	BHET released [11] [mM]	BHET released [12] [mM]	BHET released [13] [mM]	BHET released [14] [mM]	BHET released [15] [mM]	BHET released [16] [mM]	BHET released [17] [mM]	BHET released [18] [mM]	BHET released [19] [mM]	BHET released [20] [mM]	BHET released [21] [mM]	BHET released [22] [mM]	BHET released [23] [mM]	BHET released [24] [mM]
ADNPYQRGPDPTNASIEAATGPFAVGTQPIVGASGFGGGQIYYPTDTSQTYGAVVIVPGFISVWAQLAWLGPRLASQGFVVIGIETSTITDLPDPRGDQALAALDWATTRSPVRSRIDRTRLAAAGWSMGGGGLRRAACQRPSLKAIVGMAPWNTEKNWSCVTVPTLFFGGSSDAVASPNDHAKPFYNSITRAEKDYIELCNADHFFPTSANTTMAKYFISWLKRWVDNDTRYTQFLCPGPSTGLFAPVCASMNTCPF [CaPETaseM9]	0	0	0	0	0	0	0	0	0	0	0	0	0.00607 ± 0.00089	0	0.00315 ± 0.0045	0	0	0	0	0	0	0	0	0
ANPYERGPNPTDALLEARSGPFSVSEENVSRLSASGFGGGTIYYPRENNTYGAVAISPGYTGTEASIAWLGERIASHGFVVITIDTITTLDQPDSRAEQLNAALNHMINRASSTVRSRIDSSRLAVMGHSMGGGGSLRLASQRPDLKAAIPLTPWHLNKNWSSVTVPTLIIGADLDTIAPVATHAKPFYNSLPSSISKAYLELDGATHFAPNIPNKIIGKYSVAWLKRFVDNDTRYTQFLCPGPRDGLFGEVEEYRSTCPF [TfCut2]	0	0.00214 ± 0.003	0.00244 ± 0.0035	0.00625 ± 0.00089	0	0	0	0	0	0	0	0	0	0	0	0.0022 ± 0.0031	0	0	0	0	0	0	0	0
QDNPYERGPDPTEDSIEAIRGPFSVATERVSSFASGFGGGTIYYPRETDEGTFGAVAVAPGFTASQGSMSWYGERVASHGFIVFTIDTNTRLDAPGQRGRQLLAALDYLVERSDRKVRERLDPNRLAVMGHSMGGGGSLEATVMRPSLKASIPLTPWHLDKTWGQVQVPTFIIGAELDTIAPVSTHAKPFYESLPSSLPKAYMELCGATHFAPNIPNTTIAKYVISWLKRFVDEDTRYSQFLCPNPTDRAICEYRSTCPY [Cut190*SS]	0	0	0.00205 ± 0.0029	0.0117 ± 0.00081	0	0	0	0	0	0.00861 ± 0.00034	0	0	0	0.00623 ± 0.0018	0.00767 ± 0.0011	0.0058 ± 0.00068	0	0	0	0	0	0	0	0
QTNPYARGPDPTAASLEASAGPFTVRSFTVSRPSGYGAGTVYYPTNAGGTVGAIAIVPGYTARQSSIKWWGPRLASHGFVVITIDTNSTLDQPESRSSQQMAALEQVASLNGTSSSPIYGKVDTARMGVMGWSMGGGGSLISACNNPSLKAAVVQAPWHSSTNFSCVTVPTLIFACENDSIAPVNSSALPIYDSMSENAKQFLEICGGSHSCANTGNSDQALIGKKGVAWMKRFMDNDTRYSTFACENPNSTRVCDFRTANCS [Z1-PETase]	0	0	0	0	0	0	0	0	0	0	0	0	0	0	0.00328 ± 0.0046	0	0	0	0	0	0	0	0	0
QTNPYARGPNPTAASLEASAGPFTVRSFTVARPVGYGAGTVYYPTNAGGTVGAIAIVPGYTATQSSINWWGPRLASHGFVVITIDTNSTLDKPESRSSQQMAALRQVASLNGTSSSPIYGKVDTARGGVMGWSMGGGGSLISAANNPSLKAAAVMAPWHSSTNFSSVTVPTLIFACENDRIAPVKEYALPIYDSMSLNAKQFLEICGGSHSCACSGNSNQALIGMKGVAWMKRFMDNDTRYSQFACENPNSTAVCDFRTANCS [HotPETase]	0	0	0	0.045 ± 0.032	0	0	0	0	0	0	0	0	0	0.0125 ± 0.0033	0.00555 ± 0.0078	0	0	0	0	0	0.00798 ± 0.003	0	0	0
QTNPYARGPNPTAASLEASAGPFTVRSFTVSRPSGYGAGTVYYPTNAGGTVGAIAIVPGYTARQSSIKWWGPRLASHGFVVITIDTNSTFDYPSSRSSQQMAALRQVASLNGDSSSPIYGKVDTARMGVMGHSMGGGASLRSAANNPSLKAAIPQAPWDSQTNFSSVTVPTLIFACENDSIAPVNSHALPIYDSMSRNAKQFLEINGGSHSCANSGNSNQALIGKKGVAWMKRFMDNDTRYSTFACENPNSTAVSDFRTANCS [DuraPETase]	0	0	0	0.0050186 ± 1.4e-07	0	0	0	0	0	0	0	0	0	0	0	0.00475 ± 0.00038	0	0	0	0	0	0	0	0
SNPYQRGPNPTRSALTADGPFSVATYTVSRLSVSGFGGGVIYYPTGTSLTFGGIAMSPGYTADASSLAWLGRRLASHGFVVLVINTNSRFDGPDSRASQLSAALNYLRTSDPSAVRARLDANRLAVAGHSMGGGATLRIAEQNPSLKAAIPLTPWHTQKTFNTSVPVLIVGAEADTVAPVSQHAIPFYQNLPSTTPKVYVELCNASHIAPNSNNAAISVYTISWMKLWVDNDTRYRQFLCNVNDPALCDFRTNNRHCQ [LCC-ICCG DAQI]	0	0.0132 ± 0.0094	0	0.0548 ± 0.011	0.00252 ± 0.0036	0.0577 ± 0.0065	0	0.0149 ± 0.0015	0.00777 ± 0.011	0.143 ± 0.0074	0	0	0	0.00665 ± 0.0012	0	0	0	0	0	0	0.00289 ± 0.0041	0	0	0
SNPYQRGPNPTRSALTADGPFSVATYTVSRLSVSGFGGGVIYYPTGTSLTFGGIAMSPGYTADASSLAWLGRRLASHGFVVLVINTNSRFDGPDSRASQLSAALNYLRTSSPSAVRARLDANRLAVAGHSMGGGGTLRIAEQNPSLKAAVPLTPWHTDKTFNTSVPVLIVGAEADTVAPVSQHAIPFYQNLPSTTPKVYVELCNASHIAPNSNNAAISVYTISWMKLWVDNDTRYRQFLCNVNDPALCDFRTNNRHCQ [LCC-ICCG]	0	0.00902 ± 0.0075	0.0136 ± 0.016	0.0155 ± 0.031	0	0.039 ± 0.049	0	0.00749 ± 0.0053	0	0.0808 ± 0.021	0	0	0	0.00462 ± 0.0039	0	0	0	0	0	0	0.0013 ± 0.0026	0	0	0
SNPYQRGPNPTRSALTADGPFSVATYTVSRLSVSGFGGGVIYYPTGTSLTFGGIAMSPGYTADASSLAWLGRRLASHGFVVLVINTNSRFDGPDSRASQLSAALNYLRTSSPSAVRARLDANRLAVAGHSMGGGGTLRIAEQNPSLKAAVPLTPWHTDKTFNTSVPVLIVGAEADTVAPVSQYAIPFYQNLPSTTPKVYVELCNASHIAPNSDNAAISVYTISWMKLWVDNDTRYRQFLCNVNDPALCDFRTNNRHCQ [LCC-A2]	0	0	0	0	0	0.0275 ± 0.039	0	0.00399 ± 0.0056	0	0.0146 ± 0.021	0	0	0.0062 ± 0.0088	0	0	0	0	0	0	0	0	0	0	0
SNPYQRGPNPTRSALTADGPFSVRTYTISRLSVSGFGGGVIYYPTGTSLTFGGIAMSPGYTADASSLAWLGRRLASHGFVVLVINTNSRFDGPDSRASQLSAALNYLRTSSPSAVRARLDANRLAVAGHSMGGGGTLRIAEQNPSLKAAVPLTPWHTDKTFNTSVPVLIVGAEADTVAPVSQHAIPFYQNLPSTTPKVYVELCNASHIAPNSPNAAISVYTISWMKLWVDNDTRYRQFLCNVNDPALCDFRTNNRHCQ [LCC-ICCG RIP]	0.00297 ± 0.0042	0.00225 ± 0.0032	0	0.0189 ± 0.027	0.00205 ± 0.0029	0.0202 ± 0.029	0	0.00382 ± 0.0054	0	0.0465 ± 0.015	0	0	0.00464 ± 0.0066	0	0	0	0	0	0	0.00217 ± 0.0031	0	0	0	0
SNPYQRGPNPTRSALTATGPFSVATYTVSRLLVSGFGGGVIYYPTGTSLTFGGIAMSPGYTADASSLAWLGRRLASHGFVVLVINTNSRFDGPDSRARQLSAALNYLRTSSPSAVRARLDANRLAVAGHSMGGGGTLRIAEQNPSLKAAVPLTPWHPDKTFNTSVPVLIVGAQADTVAPVSQHAIPFYQNLPSTTPKVYVELCNASHIAPNSPNAAISVYTISWMKLWVDNDTRYRQFLCNVNDPALCDFRTNNRHCQ [LCC-ICCG I6M]	0	0.00212 ± 0.003	0	0.0371 ± 0.052	0.00219 ± 0.0031	0	0	0.00615 ± 0.00077	0	0	0	0	0.00411 ± 0.0058	0	0	0	0	0	0	0	0	0	0	0
